From paper PMC10359466

T1: TbRPA1 DBD-AB (Trypanosoma brucei, UniProt Q384B5 1-257)
T1 sequence: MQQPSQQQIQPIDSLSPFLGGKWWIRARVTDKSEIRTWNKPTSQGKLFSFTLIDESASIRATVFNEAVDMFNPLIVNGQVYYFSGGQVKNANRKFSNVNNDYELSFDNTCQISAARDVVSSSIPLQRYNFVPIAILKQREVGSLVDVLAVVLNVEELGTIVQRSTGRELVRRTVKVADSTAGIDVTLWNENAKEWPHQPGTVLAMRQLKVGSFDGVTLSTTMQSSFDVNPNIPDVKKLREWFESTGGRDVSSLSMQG


Columns and labels:
TbRPA1 DBD-AB = molecular target: T1, TbRPA1 DBD-AB; assay: MST; 20 mM Tris pH 7.5, 10 mM NaCl, 10 mM MgCl2, 2 mM DTT, 10% glycerol, 0.1 mg/ml BSA, 15 min, room temperature; EMSA 2 nM probe (gel at 4 C), MST 10 nM probe; conditions: protein: recombinant; tags: N-term 6xHis (pET28a); label: 5' Cy5 (MST) or 5' IRDye800 (EMSA); single strand
HsRPA1 DBD-AB = HsRPA1 DBD-AB (Homo sapiens, UniProt P27694 181-427); assay: as above; conditions: protein: recombinant; tags: 6xHis (pET28a); label: 5' Cy5 (MST) or 5' IRDye800 (EMSA); single strand
HsRPA1 DBD-AB, sequence (P27694 181-427): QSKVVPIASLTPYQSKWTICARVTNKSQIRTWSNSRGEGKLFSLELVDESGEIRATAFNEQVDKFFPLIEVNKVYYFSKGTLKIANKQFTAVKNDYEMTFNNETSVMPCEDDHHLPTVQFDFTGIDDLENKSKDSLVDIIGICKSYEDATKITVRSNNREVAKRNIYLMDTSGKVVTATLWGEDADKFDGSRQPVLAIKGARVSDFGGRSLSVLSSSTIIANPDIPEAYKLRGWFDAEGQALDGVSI

TbRPA1 DBD-AB S105T = TbRPA1 DBD-AB S105T (Trypanosoma brucei, UniProt Q384B5 1-257, S105T); assay: as above; conditions: protein: recombinant; tags: N-term 6xHis; label: 5' Cy5 (MST) or 5' IRDye800 (EMSA); single strand
TcRPA1 DBD-AB T105S = TcRPA1 DBD-AB T105S (Trypanosoma cruzi, UniProt Q4DXC9 2-257, T105S); assay: as above; conditions: protein: recombinant; tags: N-term 6xHis; label: 5' Cy5 (MST) or 5' IRDye800 (EMSA); single strand
TbRPA1 DBD-AB W188A = TbRPA1 DBD-AB W188A (Trypanosoma brucei, UniProt Q384B5 1-257, W188A); assay: EMSA, MST; 20 mM Tris pH 7.5, 10 mM NaCl, 10 mM MgCl2, 2 mM DTT, 10% glycerol, 0.1 mg/ml BSA, 15 min, room temperature; EMSA 2 nM probe (gel at 4 C), MST 10 nM probe; conditions: protein: recombinant; tags: N-term 6xHis; label: 5' Cy5 (MST) or 5' IRDye800 (EMSA); single strand
TbRPA1 DBD-AB F64A = TbRPA1 DBD-AB F64A (Trypanosoma brucei, UniProt Q384B5 1-257, F64A); assay: as above; conditions: protein: recombinant; tags: N-term 6xHis; label: 5' Cy5 (MST) or 5' IRDye800 (EMSA); single strand

Row | Binder | Kd (TbRPA1 DBD-AB) | Kd (HsRPA1 DBD-AB) | Kd (TbRPA1 DBD-AB S105T) | Kd (TcRPA1 DBD-AB T105S) | binding result (TbRPA1 DBD-AB W188A) | binding result (TbRPA1 DBD-AB F64A)
1 | TTTTTTTTTTTTTTTTTTTT (ssDNA) [dT20] | 30.5 nM |  |  |  |  | 
2 | TTTTTTTTTTTTTTTTTTTTTTTTTTTTTTTT (ssDNA) [dT32] | 24.6 ± 12.4 nM | 48 ± 37.4 nM | 21.9 ± 2.7 nM | 52.4 ± 27.9 nM | no binding | no binding
